Experimental data reported in patent US20220204580A1 (AstraZeneca / MedImmune, published 2022).
Numbered stars: 1 amine (or outer) side, 2 acyl side, 3 side chain; on linkers, the order of the positions; unused ones are H or OH. Bridge positions count the residues as written; N and C are the ends. Square brackets hold non-standard residues; d marks the D form. Side chains are listed from the residue outwards. Ends that are not written are not given here. * marks the point of attachment. C18 diacid = O=C(O)CCCCCCCCCCCCCCCCC(=O)*; γGlu = O=C(O)[C@H](CCC(=O)[*:2])N[*:1]; Aib = CC(C)(N)C(=O)O

T1: human amylin receptor (calcitonin receptor co-expressed with receptor activity modifying protein, RAMP3) (human, UniProt P30988 25-474; O60896 24-148)
T1 sequence (looked up) 1: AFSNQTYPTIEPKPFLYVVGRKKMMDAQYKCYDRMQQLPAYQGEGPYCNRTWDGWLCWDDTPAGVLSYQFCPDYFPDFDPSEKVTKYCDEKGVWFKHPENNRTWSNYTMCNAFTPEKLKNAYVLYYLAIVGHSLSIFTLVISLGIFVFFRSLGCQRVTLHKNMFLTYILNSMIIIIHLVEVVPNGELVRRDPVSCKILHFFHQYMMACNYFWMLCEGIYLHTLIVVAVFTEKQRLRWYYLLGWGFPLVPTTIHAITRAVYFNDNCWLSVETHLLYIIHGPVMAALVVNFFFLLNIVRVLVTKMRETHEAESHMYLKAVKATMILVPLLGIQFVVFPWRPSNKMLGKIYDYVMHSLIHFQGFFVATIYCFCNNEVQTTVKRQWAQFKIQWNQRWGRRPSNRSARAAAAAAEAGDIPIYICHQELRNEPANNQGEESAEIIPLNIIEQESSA
T1 sequence (looked up) 2: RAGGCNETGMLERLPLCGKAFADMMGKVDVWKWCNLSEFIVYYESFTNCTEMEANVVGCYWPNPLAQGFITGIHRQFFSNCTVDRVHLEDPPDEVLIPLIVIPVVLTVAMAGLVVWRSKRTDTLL

T2: human calcitonin receptor (human, UniProt P30988 25-474)
T2 sequence (looked up): T1 sequence (looked up) 1

B1: Peptide 102 (SEQ ID NO: 102) (peptide)
peptide: K([γGlu-C18 diacid])KCNTATCATQRLANFL[Aib]HSSNNFGPILPPTNVGS[Aib]TY-NH2
modifications: disulfide 3-8; N-terminus assumed
SMILES: CC[C@H](C)[C@H](NC(=O)[C@@H]1CCCN1C(=O)CNC(=O)[C@H](Cc1ccccc1)NC(=O)[C@H](CC(N)=O)NC(=O)[C@H](CC(N)=O)NC(=O)[C@H](CO)NC(=O)[C@H](CO)NC(=O)[C@H](Cc1c[nH]cn1)NC(=O)C(C)(C)NC(=O)[C@H](CC(C)C)NC(=O)[C@H](Cc1ccccc1)NC(=O)[C@H](CC(N)=O)NC(=O)[C@H](C)NC(=O)[C@H](CC(C)C)NC(=O)[C@H](CCCNC(=N)N)NC(=O)[C@H](CCC(N)=O)NC(=O)[C@@H](NC(=O)[C@H](C)NC(=O)[C@@H]1CSSC[C@H](NC(=O)[C@H](CCCCN)NC(=O)[C@@H](N)CCCCNC(=O)CC[C@H](NC(=O)CCCCCCCCCCCCCCCCC(=O)O)C(=O)O)C(=O)N[C@@H](CC(N)=O)C(=O)N[C@@H]([C@@H](C)O)C(=O)N[C@@H](C)C(=O)N[C@@H]([C@@H](C)O)C(=O)N1)[C@@H](C)O)C(=O)N[C@@H](CC(C)C)C(=O)N1CCC[C@H]1C(=O)N1CCC[C@H]1C(=O)N[C@H](C(=O)N[C@@H](CC(N)=O)C(=O)N[C@H](C(=O)NCC(=O)N[C@@H](CO)C(=O)NC(C)(C)C(=O)N[C@H](C(=O)N[C@@H](Cc1ccc(O)cc1)C(N)=O)[C@@H](C)O)C(C)C)[C@@H](C)O
B2: Peptide 101 (SEQ ID NO: 101) (peptide)
peptide: K([γGlu-C18 diacid])KCNTATCATQRLANFL[Aib]HSSNNFGPILPPTNVG[Aib]NTY-NH2
modifications: disulfide 3-8; N-terminus assumed
SMILES: CC[C@H](C)[C@H](NC(=O)[C@@H]1CCCN1C(=O)CNC(=O)[C@H](Cc1ccccc1)NC(=O)[C@H](CC(N)=O)NC(=O)[C@H](CC(N)=O)NC(=O)[C@H](CO)NC(=O)[C@H](CO)NC(=O)[C@H](Cc1c[nH]cn1)NC(=O)C(C)(C)NC(=O)[C@H](CC(C)C)NC(=O)[C@H](Cc1ccccc1)NC(=O)[C@H](CC(N)=O)NC(=O)[C@H](C)NC(=O)[C@H](CC(C)C)NC(=O)[C@H](CCCNC(=N)N)NC(=O)[C@H](CCC(N)=O)NC(=O)[C@@H](NC(=O)[C@H](C)NC(=O)[C@@H]1CSSC[C@H](NC(=O)[C@H](CCCCN)NC(=O)[C@@H](N)CCCCNC(=O)CC[C@H](NC(=O)CCCCCCCCCCCCCCCCC(=O)O)C(=O)O)C(=O)N[C@@H](CC(N)=O)C(=O)N[C@@H]([C@@H](C)O)C(=O)N[C@@H](C)C(=O)N[C@@H]([C@@H](C)O)C(=O)N1)[C@@H](C)O)C(=O)N[C@@H](CC(C)C)C(=O)N1CCC[C@H]1C(=O)N1CCC[C@H]1C(=O)N[C@H](C(=O)N[C@@H](CC(N)=O)C(=O)N[C@H](C(=O)NCC(=O)NC(C)(C)C(=O)N[C@@H](CC(N)=O)C(=O)N[C@H](C(=O)N[C@@H](Cc1ccc(O)cc1)C(N)=O)[C@@H](C)O)C(C)C)[C@@H](C)O
B3: Peptide 100 (SEQ ID NO: 100) (peptide)
peptide: K([γGlu-C18 diacid])KCNTATCATQRLANFL[Aib]HSSNNFGPILPPTNV[Aib]SNTY-NH2
modifications: disulfide 3-8; N-terminus assumed
SMILES: CC[C@H](C)[C@H](NC(=O)[C@@H]1CCCN1C(=O)CNC(=O)[C@H](Cc1ccccc1)NC(=O)[C@H](CC(N)=O)NC(=O)[C@H](CC(N)=O)NC(=O)[C@H](CO)NC(=O)[C@H](CO)NC(=O)[C@H](Cc1c[nH]cn1)NC(=O)C(C)(C)NC(=O)[C@H](CC(C)C)NC(=O)[C@H](Cc1ccccc1)NC(=O)[C@H](CC(N)=O)NC(=O)[C@H](C)NC(=O)[C@H](CC(C)C)NC(=O)[C@H](CCCNC(=N)N)NC(=O)[C@H](CCC(N)=O)NC(=O)[C@@H](NC(=O)[C@H](C)NC(=O)[C@@H]1CSSC[C@H](NC(=O)[C@H](CCCCN)NC(=O)[C@@H](N)CCCCNC(=O)CC[C@H](NC(=O)CCCCCCCCCCCCCCCCC(=O)O)C(=O)O)C(=O)N[C@@H](CC(N)=O)C(=O)N[C@@H]([C@@H](C)O)C(=O)N[C@@H](C)C(=O)N[C@@H]([C@@H](C)O)C(=O)N1)[C@@H](C)O)C(=O)N[C@@H](CC(C)C)C(=O)N1CCC[C@H]1C(=O)N1CCC[C@H]1C(=O)N[C@H](C(=O)N[C@@H](CC(N)=O)C(=O)N[C@H](C(=O)NC(C)(C)C(=O)N[C@@H](CO)C(=O)N[C@@H](CC(N)=O)C(=O)N[C@H](C(=O)N[C@@H](Cc1ccc(O)cc1)C(N)=O)[C@@H](C)O)C(C)C)[C@@H](C)O
B4: Peptide 106 (SEQ ID NO: 106) (peptide)
peptide: K([γGlu-C18 diacid])KCNTATCATQRLANFLVHSSNNFGP[Aib]LPPTNVGSNTY-NH2
modifications: disulfide 3-8; N-terminus assumed
SMILES: CC(C)C[C@H](NC(=O)[C@H](CCCNC(=N)N)NC(=O)[C@H](CCC(N)=O)NC(=O)[C@@H](NC(=O)[C@H](C)NC(=O)[C@@H]1CSSC[C@H](NC(=O)[C@H](CCCCN)NC(=O)[C@@H](N)CCCCNC(=O)CC[C@H](NC(=O)CCCCCCCCCCCCCCCCC(=O)O)C(=O)O)C(=O)N[C@@H](CC(N)=O)C(=O)N[C@@H]([C@@H](C)O)C(=O)N[C@@H](C)C(=O)N[C@@H]([C@@H](C)O)C(=O)N1)[C@@H](C)O)C(=O)N[C@@H](C)C(=O)N[C@@H](CC(N)=O)C(=O)N[C@@H](Cc1ccccc1)C(=O)N[C@@H](CC(C)C)C(=O)N[C@H](C(=O)N[C@@H](Cc1c[nH]cn1)C(=O)N[C@@H](CO)C(=O)N[C@@H](CO)C(=O)N[C@@H](CC(N)=O)C(=O)N[C@@H](CC(N)=O)C(=O)N[C@@H](Cc1ccccc1)C(=O)NCC(=O)N1CCC[C@H]1C(=O)NC(C)(C)C(=O)N[C@@H](CC(C)C)C(=O)N1CCC[C@H]1C(=O)N1CCC[C@H]1C(=O)N[C@H](C(=O)N[C@@H](CC(N)=O)C(=O)N[C@H](C(=O)NCC(=O)N[C@@H](CO)C(=O)N[C@@H](CC(N)=O)C(=O)N[C@H](C(=O)N[C@@H](Cc1ccc(O)cc1)C(N)=O)[C@@H](C)O)C(C)C)[C@@H](C)O)C(C)C

Tests used:
[1] = biological target: T1, human amylin receptor (calcitonin …); assay: cell-based or functional assay
[2] = biological target: T2, human calcitonin receptor; assay: cell-based or functional assay

Row | Binder | EC50 (cAMP production) [1] [nM] | Ratio (EC50 hCTR / EC50 hAMYR3) [1] | EC50 (cAMP production) [2] [nM]
1 | B1 | 0.479 | 3 | 1.63
2 | B2 | 0.177 | 2 | 0.441
3 | B3 | 0.364 | 1 | 0.459
4 | B4 | 0.473 | 7 | 3.42
5 | K([γGlu-C18 diacid])CNTATCATQRLANFLVHSSNNFGPIL[dP]PTNVGSNTY-NH2 (disulfide 2-7) [Peptide 104 (SEQ ID NO: 104)] | 0.079 | 23 | 1.82
6 | K([γGlu-C18 diacid])CNTATCATQRLANFLVHSSNNFGPI[dL]PPTNVGSNTY-NH2 (disulfide 2-7) [Peptide 103 (SEQ ID NO: 103)] | 0.161 | 12 | 1.88
